The values that follow come from patent publication EP4785956A2 (CHUGAI SEIYAKU KABUSHIKI KAISHA, dated 2026).

The target in assay [1] is T1, recombinant human C5 (human, UniProt P01031 20-1676).
T1 construct: The same entry is used here for C5 in normal human serum in the functional rows; also called hC5; rhC5
In words: SPR (BIACORE T200), ratio of kd of condition (2) and (1). In general terms: SPR reads the build-up and loss of mass on a sensor chip optically.

For assay [2], the target named is T2, recombinant MG1-MG2 domain of human C5 beta-chain (human, UniProt P01031 20-225).
T2 construct: also called MG1-MG2 domain (1-225) of human C5
In words: SPR (BIACORE T200), antibody captured, MG1-MG2 domain injected, pH7.4, 37 degrees C.

B1: 305LO20-SG115 (antibody)
heavy: QVQLVESGGGLVQPGGSLRLSCAASGFTVHSSYYMAWVRQAPGKGLEWVGAIFTGSGAEYKAEWAKGRVTISKDTSKNQVVLTMTNMDPVDTATYYCASDAGYDYPTHAMHYWGQGTLVTVSSASTKGPSVFPLAPSSKSTSGGTAALGCLVKDYFPEPVTVSWNSGALTSGVHTFPAVLQSSGLYSLSSVVTVPSSSLGTQTYICNVNHKPSNTKVDKKVEPKSCDKTHTCPPCPAPELRRGPKVFLFPPKPKDTLMISRTPEVTCVVVDVSHEDPEVKFNWYVDGVEVHNAKTKPREEQYNSTYRVVSVLTVLHQDWLNGKEYKCKVSNKGLPSSIEKTISKAKGQPREPQVYTLPPSREEMTKNQVSLTCLVKGFYPSDIAVEWESNGQPENNYKTTPPVLDSDGSFFLYSKLTVDKSRWQQGNVFSCSVLHEALHAHYTRKELSLSP
light: DIQMTQSPSSLSASVGDRVTITCRASQGISSSLAWYQQKPGQAPRLLIYGASETESGVPSRFSGSGSGTDFTLTISSLQPEDFATYYCQNTKVGSSYGNTFGGGTKVEIKRTVAAPSVFIFPPSDEQLKSGTASVVCLLNNFYPREAKVQWKVDNALQSGNSQESVTEQDSKDSTYSLSSTLTLSKADYEKHKVYACEVTHQGLSSPVTKSFNRGEC
Turning to B1, in assay [1], the “pH dependency (ratio of dissociation rate at pH5.8 to that at pH7.4)” value came to 17.5.

B2: 305LO23-SG115 (antibody, V domains shown)
VH: QVQLVESGGGLVQPGGSLRLSCAASGFTVHSSYYMAWVRQAPGKGLEWVSGIFTGSGATYKAEWAKGRVTISKDTSKNQVVLTMTNMDPVDTATYYCASDAGYDYPTHAMHYWGQGTLVTVSS
VL: DIQMTQSPSSLSASVGDRVTITCRASQGISSSLAWYQQKPGQAPRLLIYGASTTQSGVPSRFSGSGSGTDFTLTISSLQPEDFATYYCQNTKVGSSYGNTFGGGTKVEIKR
With B2, the “pH dependency (ratio of dissociation rate at pH5.8 to that at pH7.4)” value in assay [1] is 20.2.

B3: 305LO20-SG422 (antibody)
heavy: QVQLVESGGGLVQPGGSLRLSCAASGFTVHSSYYMAWVRQAPGKGLEWVGAIFTGSGAEYKAEWAKGRVTISKDTSKNQVVLTMTNMDPVDTATYYCASDAGYDYPTHAMHYWGQGTLVTVSSASTKGPSVFPLAPCSRSTSGGTAALGCLVKDYFPEPVTVSWNSGALTSGVHTFPAVLQSSGLYSLSSVVTVPSSSLGTKTYTCNVDHKPSNTKVDKRVESKYGPPCPPCPAPEFRRGPKVFLFPPKPKDTLMISRTPEVTCVVVDVSHEDPEVKFNWYVDGVEVHNAKTKPREEQYNSTYRVVSVLTVLHQDWLNGKEYKCKVSNKGLPSSIEKTISKAKGQPREPQVYTLPPSREEMTKNQVSLTCLVKGFYPSDIAVEWESNGQPENNYKTTPPVLDSDGSFFLYSKLTVDKSRWQQGNVFSCSVLHEALHAHYTRKELSLSP
light: DIQMTQSPSSLSASVGDRVTITCRASQGISSSLAWYQQKPGQAPRLLIYGASETESGVPSRFSGSGSGTDFTLTISSLQPEDFATYYCQNTKVGSSYGNTFGGGTKVEIKRTVAAPSVFIFPPSDEQLKSGTASVVCLLNNFYPREAKVQWKVDNALQSGNSQESVTEQDSKDSTYSLSSTLTLSKADYEKHKVYACEVTHQGLSSPVTKSFNRGEC
B3: the “pH dependency (ratio of dissociation rate at pH5.8 to that at pH7.4)” value in assay [1] turned out to be 17.3.

B4: eculizumab-F760G4 (antibody, human IgG4 S228P, kappa)
heavy: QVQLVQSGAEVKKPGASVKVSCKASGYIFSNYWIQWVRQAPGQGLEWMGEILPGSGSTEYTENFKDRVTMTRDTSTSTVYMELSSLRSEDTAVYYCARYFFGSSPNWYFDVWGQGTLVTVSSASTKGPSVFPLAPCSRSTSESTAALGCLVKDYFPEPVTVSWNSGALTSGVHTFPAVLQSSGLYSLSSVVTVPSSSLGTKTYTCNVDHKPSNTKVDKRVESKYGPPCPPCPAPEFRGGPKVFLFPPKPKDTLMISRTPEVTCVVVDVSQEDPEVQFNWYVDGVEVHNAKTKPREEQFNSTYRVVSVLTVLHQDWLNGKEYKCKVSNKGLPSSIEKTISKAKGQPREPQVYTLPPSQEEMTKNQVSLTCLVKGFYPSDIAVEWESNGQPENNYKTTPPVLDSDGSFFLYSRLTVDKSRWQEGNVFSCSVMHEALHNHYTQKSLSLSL
light: DIQMTQSPSSLSASVGDRVTITCGASENIYGALNWYQQKPGKAPKLLIYGATNLADGVPSRFSGSGSGTDFTLTISSLQPEDFATYYCQNVLNTPLTFGQGTKVEIKRTVAAPSVFIFPPSDEQLKSGTASVVCLLNNFYPREAKVQWKVDNALQSGNSQESVTEQDSKDSTYSLSSTLTLSKADYEKHKVYACEVTHQGLSSPVTKSFNRGEC
As to B4, in assay [2], the binding result was “no binding (tested: 20 nM and 40 nM)”.
